Laboratory results: paper PMC9297866

How the values were obtained:
purified protein [1] = substrate: C=C(C)CCO[P@@](=O)(O)OP(=O)(O)O; assay: purified protein; details: regular coupling; two-substrate reaction with DMAPP
purified protein [2] = substrate: CC(C)=CCOP(=O)(O)OP(=O)(O)O; assay: purified protein; details: regular coupling; two-substrate reaction with IPP

B1: neryl diphosphate synthase from Solanum lycopersicum (SlNPPS) (Solanum lycopersicum; N88H) (protein)
chain: SLNLQTEKLCYEDNDNDLDEELMPKHIALIMDGHRRWAKDKGLEVYEGHKHIIPKLKEICDISSKLGIQIITAFAFSTENWKRSKEEVDFLLQMFEEIYDEFSRSGVRVSIIGCKSDLPMTLQKCIALTEETTKGNKGLHLVIALNYGGYYDILQATKSIVNKAMNGLLDVEDINKNLFDQELESKCPNPDLLIRTGGEQRVSNFLLWQLAYTEFYFTNTLFPDFGEEDLKEAIMNFQQRHRRFGGHTY
- Km (purified protein [1]): 457 ± 91 µM
- kcat (purified protein [1]): 87±15×10^-3 s^-1
- Km (purified protein [2]): 391 ± 96 µM
- kcat (purified protein [2]): 87±15×10^-3 s^-1
